± gives the standard deviation.
Experiment: protein stability index of a GFP-peptide fusion (GPS, HEK-293T) (PSI 1-6); higher = more stable
Settings: c terminus: a fixed tail appended
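Further: 24-mer peptide tiles fused after GFP, lentivirally expressed, FACS-sorted into six equal bins by GFP/DsRed ratio, decoded by Illumina sequencing, PSI is the read-weighted mean bin number.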

What does the source list for VVQTLYPFSSVTEEELNFEKGETM [NCK2]?
protein stability index (treatment: DMSO): 3.66 ± 0.17; protein stability index (treatment: MLN4924 1 uM, 8 h): 3.77 ± 0.29

For IPYFITLGTELAERQGNGQQAMSL [KCNA3], which protein stability index (treatment: DMSO) is on record?
Its protein stability index is 3.03 ± 0.59.

What about the protein stability index (treatment: MLN4924 1 uM, 8 h) of the same sequence?
Its protein stability index is 3.01 ± 0.37.

Which protein stability index (treatment: DMSO) does the source give for IGEEVRQLMEKLREKQLSHSLRAV [BEX1] here?
The protein stability index was 2.68 ± 0.14.

What about the protein stability index (treatment: MLN4924 1 uM, 8 h) of the same sequence?
The protein stability index was 2.82 ± 0.22.

Which protein stability index (treatment: DMSO) does the source give for AKLGTQAEKDRRLKKKHQLLEDAR [PPFIA4] here?
Its protein stability index is 4.26 ± 0.37.

And the protein stability index (treatment: MLN4924 1 uM, 8 h)?
Its protein stability index is 4.44 ± 0.1.

With FSVKFEVQAPRWGNPRALSFVLSS [OAS1] as the sequence, how does the protein stability index (treatment: DMSO) read?
Its protein stability index is 2.94 ± 0.27.

And the protein stability index (treatment: MLN4924 1 uM, 8 h)?
The protein stability index was 3.01 ± 0.49.

For IFYFVIQRKKWVDLAWMITFYVRF [FADS1], which protein stability index (treatment: DMSO) is on record?
Its protein stability index is 2.6 ± 0.72.

What about the protein stability index (treatment: MLN4924 1 uM, 8 h) of the same sequence?
Its protein stability index is 2.93 ± 0.94.

Which protein stability index (treatment: DMSO) does the source give for IYGGELGPMMKLKRHFVAQKYKKQ [ACSBG2] here?
Its protein stability index is 2.49 ± 0.2.

What about the protein stability index (treatment: MLN4924 1 uM, 8 h) of the same sequence?
Its protein stability index is 2.85 ± 0.25.

Which protein stability index (treatment: DMSO) does the source give for YGPLKPLPQTPHLEEDLKEVLRSE [MYBL2] here?
The protein stability index was 5 ± 0.19.

And the protein stability index (treatment: MLN4924 1 uM, 8 h)?
The protein stability index was 4.95 ± 0.24.

Which results are given for PDCLRACQEQIEALLESSLRQAQQ [CCND1]?
protein stability index (treatment: DMSO): 3.23 ± 0.34; protein stability index (treatment: MLN4924 1 uM, 8 h): 3.59 ± 0.38

What does the source list for TLLLRLNATDPDEGTNGQLDYSFG [PCDHGC5]?
protein stability index (treatment: DMSO): 2.88 ± 0.36; protein stability index (treatment: MLN4924 1 uM, 8 h): 3.11 ± 0.28

What does the source list for NWIVPGKFLAFSGPHPKSKIENGY [CDC14A]?
protein stability index (treatment: DMSO): 2.32 ± 0.36; protein stability index (treatment: MLN4924 1 uM, 8 h): 2.61 ± 0.48

Which protein stability index (treatment: DMSO) does the source give for KKFRSSTSSSLGDKSEYLEMEEGV [KCNA4] here?
The protein stability index was 4.6 ± 0.37.

What about the protein stability index (treatment: MLN4924 1 uM, 8 h) of the same sequence?
Its protein stability index is 4.91 ± 0.28.

With LTTKGEMPVQLTSRREIRKIMGVE [ANKRD40] as the sequence, how does the protein stability index (treatment: DMSO) read?
The protein stability index was 3.7 ± 0.048.

What about the protein stability index (treatment: MLN4924 1 uM, 8 h) of the same sequence?
Its protein stability index is 3.85 ± 0.18.

With VFDSEKCVSIPDVVGWFVLFYKPG [GULP1] as the sequence, how does the protein stability index (treatment: DMSO) read?
Its protein stability index is 2.8 ± 1.

What about the protein stability index (treatment: MLN4924 1 uM, 8 h) of the same sequence?
The protein stability index was 2.83 ± 0.33.

With AIMNALIEAGAHMDATNAFKKTAY [FEM1A] as the sequence, how does the protein stability index (treatment: DMSO) read?
The protein stability index was 2.51 ± 0.39.

And the protein stability index (treatment: MLN4924 1 uM, 8 h)?
Its protein stability index is 2.11 ± 0.35.

What does the source list for GGEGVEVELLHNTSYTRQACLVSC [SCNN1D]?
protein stability index (treatment: DMSO): 2.9 ± 0.2; protein stability index (treatment: MLN4924 1 uM, 8 h): 2.55 ± 0.31

Which results are given for SKYHRFISFTLYLIGFCMFVLSLV [CDS2]?
protein stability index (treatment: DMSO): 2.04 ± 0.36; protein stability index (treatment: MLN4924 1 uM, 8 h): 1.86 ± 0.51

With DLVKKIRDFHRKILTLPEMMRMFS [TRIM15] as the sequence, how does the protein stability index (treatment: DMSO) read?
Its protein stability index is 2.45 ± 0.46.

And the protein stability index (treatment: MLN4924 1 uM, 8 h)?
Its protein stability index is 2.35 ± 0.19.

Which protein stability index (treatment: DMSO) does the source give for LTERKYKGDSTIRELKAKLSGVEE [SASS6] here?
Its protein stability index is 4.18 ± 0.41.

And the protein stability index (treatment: MLN4924 1 uM, 8 h)?
The protein stability index was 4.63 ± 0.52.

Which results are given for DEIEEVPTTSHRLSRHDKAVQRFC [NETO1]?
protein stability index (treatment: DMSO): 4.78 ± 0.18; protein stability index (treatment: MLN4924 1 uM, 8 h): 4.68 ± 0.1

With IPKPQSTGWFGGGFTSYLGFGDED [MIA2] as the sequence, how does the protein stability index (treatment: DMSO) read?
Its protein stability index is 3.14 ± 0.16.

What about the protein stability index (treatment: MLN4924 1 uM, 8 h) of the same sequence?
The protein stability index was 3.53 ± 0.55.

For YTVKDKATGEVLGQFYLDLYPREG [NLN], which protein stability index (treatment: DMSO) is on record?
Its protein stability index is 3.1 ± 0.69.

What about the protein stability index (treatment: MLN4924 1 uM, 8 h) of the same sequence?
The protein stability index was 2.8 ± 0.77.

For MLDHHPVAITVEVKQEEDIKPPPP [RAD54B], which protein stability index (treatment: DMSO) is on record?
The protein stability index was 5.08 ± 0.22.

And the protein stability index (treatment: MLN4924 1 uM, 8 h)?
Its protein stability index is 5.19 ± 0.1.

Which protein stability index (treatment: DMSO) does the source give for DLEAQMESLKEELLSLKQNHEQEV [KRT33B] here?
Its protein stability index is 4.95 ± 0.32.

And the protein stability index (treatment: MLN4924 1 uM, 8 h)?
The protein stability index was 4.96 ± 0.22.

For PVPILEKLPLQIDCLAAWEEWLLV [VPS39], which protein stability index (treatment: DMSO) is on record?
The protein stability index was 2.24 ± 0.19.

And the protein stability index (treatment: MLN4924 1 uM, 8 h)?
The protein stability index was 2.18 ± 0.27.

What does the source list for EFDYLKSLEIEEKINKIRWLPQQN [PPP2R2B]?
protein stability index (treatment: DMSO): 2.62 ± 0.21; protein stability index (treatment: MLN4924 1 uM, 8 h): 2.9 ± 0.42

With QLNGILLHLESELAQTRAEGQRQA [KRT18] as the sequence, how does the protein stability index (treatment: DMSO) read?
Its protein stability index is 2.93 ± 0.26.

What about the protein stability index (treatment: MLN4924 1 uM, 8 h) of the same sequence?
The protein stability index was 2.86 ± 0.16.

With IVDPTTGKRYCRGKVLGKGGFAKC [PLK2] as the sequence, how does the protein stability index (treatment: DMSO) read?
Its protein stability index is 2.63 ± 0.38.

What about the protein stability index (treatment: MLN4924 1 uM, 8 h) of the same sequence?
Its protein stability index is 2.92 ± 0.16.

Which protein stability index (treatment: DMSO) does the source give for PQYAERLLSGAFKKRRLPPVHIHP [FOXJ1] here?
The protein stability index was 2.76 ± 0.22.

What about the protein stability index (treatment: MLN4924 1 uM, 8 h) of the same sequence?
The protein stability index was 2.9 ± 0.1.

Which protein stability index (treatment: DMSO) does the source give for EIETWVREHCPENRERVVSLIEDL [ZNF449] here?
Its protein stability index is 3.9 ± 0.2.

And the protein stability index (treatment: MLN4924 1 uM, 8 h)?
Its protein stability index is 4.01 ± 0.29.

Which protein stability index (treatment: DMSO) does the source give for KRLKERSLDTLLEAVESRGGVPGG [SMAD6] here?
The protein stability index was 4.32 ± 0.16.

And the protein stability index (treatment: MLN4924 1 uM, 8 h)?
Its protein stability index is 4.72 ± 0.12.

Which protein stability index (treatment: DMSO) does the source give for YAIVRRPTVGIGGDRLQFNQLSQA [EFHC1] here?
Its protein stability index is 2.06 ± 0.21.

What about the protein stability index (treatment: MLN4924 1 uM, 8 h) of the same sequence?
Its protein stability index is 2.5 ± 0.19.

Which protein stability index (treatment: DMSO) does the source give for FSLKTFKRKSEVERAVKRMRHLST [MATN2] here?
The protein stability index was 2.54 ± 0.51.

What about the protein stability index (treatment: MLN4924 1 uM, 8 h) of the same sequence?
The protein stability index was 2.82 ± 0.46.

Which protein stability index (treatment: DMSO) does the source give for RHAEQQALRLEVRAGPDSAGIALY [CARM1] here?
The protein stability index was 2.54 ± 0.43.

What about the protein stability index (treatment: MLN4924 1 uM, 8 h) of the same sequence?
Its protein stability index is 2.81 ± 0.7.

Which protein stability index (treatment: DMSO) does the source give for FMRTDPVCQKLLLDAMNYHLMPFR [KLHL14] here?
Its protein stability index is 2.25 ± 0.19.

What about the protein stability index (treatment: MLN4924 1 uM, 8 h) of the same sequence?
Its protein stability index is 2.28 ± 0.3.

What does the source list for YDRVAQLDQLLHYRKKSAEFPDFY [CHGB]?
protein stability index (treatment: DMSO): 2.72 ± 0.14; protein stability index (treatment: MLN4924 1 uM, 8 h): 2.8 ± 0.21

Which results are given for LKKSNSAPSKKAAKDPGKGELPNH [FBF1]?
protein stability index (treatment: DMSO): 5.14 ± 0.1; protein stability index (treatment: MLN4924 1 uM, 8 h): 5.08 ± 0.11

Which protein stability index (treatment: DMSO) does the source give for YARTPTLDPDTMHARLRLSADRLT [TRIM14] here?
Its protein stability index is 2.91 ± 0.17.

And the protein stability index (treatment: MLN4924 1 uM, 8 h)?
The protein stability index was 3.27 ± 0.33.

For PNYLANPAFPFIYTPTAEDSAQMQ [ANKRD40], which protein stability index (treatment: DMSO) is on record?
The protein stability index was 3.85 ± 0.28.

And the protein stability index (treatment: MLN4924 1 uM, 8 h)?
The protein stability index was 4.08 ± 0.26.

For DVPVIPLDVVDNQTEKLDTNITEV [CASP6], which protein stability index (treatment: DMSO) is on record?
Its protein stability index is 5.19 ± 0.067.

What about the protein stability index (treatment: MLN4924 1 uM, 8 h) of the same sequence?
Its protein stability index is 5.14 ± 0.3.

For EMYQVSRLQHICELFIITQLQSMP [RHOBTB3], which protein stability index (treatment: DMSO) is on record?
The protein stability index was 2.21 ± 0.23.

What about the protein stability index (treatment: MLN4924 1 uM, 8 h) of the same sequence?
The protein stability index was 2.16 ± 0.44.

Which results are given for SAAVPAGQTYVDAGYEVDKIAQNL [CHIT1]?
protein stability index (treatment: DMSO): 4.39 ± 0.3; protein stability index (treatment: MLN4924 1 uM, 8 h): 4.61 ± 0.46

What does the source list for DLMKRLRFALIPAPELVERVQSVD [KLHL14]?
protein stability index (treatment: DMSO): 2.16 ± 0.14; protein stability index (treatment: MLN4924 1 uM, 8 h): 2.3 ± 0.21

With NWRRKHEEFIATIRAAKGLDQALK [ZC2HC1A] as the sequence, how does the protein stability index (treatment: DMSO) read?
The protein stability index was 2.71 ± 0.18.

What about the protein stability index (treatment: MLN4924 1 uM, 8 h) of the same sequence?
The protein stability index was 2.78 ± 0.24.

Source: the supplement of paper PMC10567573
